Reference: US20220348623A1 (Biogen, published 2022)

Target: T1, AspN-treated GDF11 (human, UniProt O95390 60-114; O95390 122-407, N-linked glycan at Asn-94, biotinylated through the glycan (Octet))
T1 construct: Full length GDF11 (ACE378) cleaved with endoproteinase AspN only; Glycopeptide 60-114 stays non-covalently associated with fragment 122-407, about 100 kDa by SEC; Minor fragments 60-117, 128-407, 133-407 and 25-114/117 were also detected; also called AspN digested GDF11; GDF11 Asp-N biotin sample
T1 sequence (peptide): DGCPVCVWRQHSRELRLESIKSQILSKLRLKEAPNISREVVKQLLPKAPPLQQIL
T1 sequence: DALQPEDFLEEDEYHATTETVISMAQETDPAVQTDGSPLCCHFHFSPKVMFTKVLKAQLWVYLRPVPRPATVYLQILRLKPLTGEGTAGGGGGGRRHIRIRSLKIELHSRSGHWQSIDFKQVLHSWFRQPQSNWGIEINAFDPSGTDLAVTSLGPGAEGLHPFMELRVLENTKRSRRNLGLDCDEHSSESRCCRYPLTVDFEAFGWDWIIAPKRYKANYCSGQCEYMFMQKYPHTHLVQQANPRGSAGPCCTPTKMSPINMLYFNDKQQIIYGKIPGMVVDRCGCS
Experiment: Octet, biotinylated GDF11 sample captured on Streptavidin sensor, receptor-Fc in solution
Experimental: Following this treatment, GDF11 peptide 60-112/114 was in the supernatant and the rest of the protein precipitated and was in the pellet fraction. The specificity of labeling of GDF11 with biotin hydrazide was confirmed by Western blotting using Streptavidin Horseradish peroxidase for detection. Only full length GDF11 and glycopeptide 60-114 were detected and not the major fragments 122-407 or 299-407. Octet Binding Studies. Binding characteristics of the biotinylated samples were evaluated by Octet on an Octet RED System (FortéBio™, Menlo Park, Calif.) using Dip and Read™ Streptavidin (SA) Biosensors (FortéBio™). Samples were prepared in 5 mM NaH₂PO₄ pH 6.0, 150 mM NaCl, 0.005% Tween-20. […] The ability of biotinylated AspN/furin GDF11 to bind Type I and II receptors was also assessed by Octet using the same loading conditions, followed by treatment of the receptors at 10 μg/mL. […] The tips were washed for 1 min and dissociation monitored for 30 min in the presence of 20 μM free biotin. For secondary binding studies with the receptors, the tips were loaded with biotinylated GDF11 and controls, and washed as described above, then the receptor samples were loaded for 15 min and dissociation monitored for 5 min.
The binding characteristics of the GDF11 peptide 60-112/114 for mature GDF11 residues 299-407 and for AspN fragment residues 122-407 were assessed using an Octet Red system. […]

B1: Recombinant Human Activin RIB (ALK-4)-Fc chimeric protein (Fc fusion, UniProt P36896 24-126, looked up)
chain: SGPRGVQALLCACTSCLQANYTCETDGACMVSIFNLDGMEHHVRTCIPKVELVPAGKPFYCLSSEDLRNTHCCYTDYCNRIDLRVPSGHLKEPEHPSMWGPVE
notes: Bought from R&D systems; also called Activin RIB-Fc; Type I receptor; Fc part of the bought chimera not given
binding result: no binding
